# Legend:
# amyloid β-protein = amyloid β-protein (Homo sapiens, UniProt P05067); assay: equilibrium dissociation constant KD with amyloid β-protein solution; format: binding; details: amyloid β-protein solution 10 μM, compound 0.1 to 10 μM, room temperature 20 min
# Experimental: In the examples of the present disclosure, the affinity of the ^10B-containing compound and the amyloid β-protein deposition plaque is evaluated by using the equilibrium dissociation constant KD value. KD can indicate the degree of dissociation of the two substances in the equilibrium state.
# The amyloid β-protein solution was prepared at a concentration of 10 μM and mixed with compound I or compound II at different concentrations (concentrations ranging from 0.1 to 10 μM). […] In addition, a known compound capable of specifically binding to amyloid β-protein was used as a control and mixed with a amyloid β-protein solution at a concentration of 10 μM and allowed to stand at room temperature for 20 min. The equilibrium dissociation constant KD was also measured and calculated.
# Aβ = details: phase III clinical trial, latest results; cited from earlier work
# Sequence of Aβ (P05067 672-711 limits assumed): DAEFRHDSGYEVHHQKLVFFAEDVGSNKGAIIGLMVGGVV
# Sequence of amyloid β-protein (P05067 672-713 limits assumed): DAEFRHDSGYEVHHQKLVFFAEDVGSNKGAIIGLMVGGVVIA
molecule,measurement,setting,value
Cc1ccc(C(=O)/C=C/c2ccc(N)cc2)o1 [control],Kd,amyloid β-protein,1590 nM
"Gantenerumab: monoclonal antibody that binds to the N-terminal epitope of Aβ (antibody, chains of the INN, looked up, V domains shown) VH: QVELVESGGGLVQPGGSLRLSCAASGFTFSSYAMSWVRQAPGKGLEWVSAINASGTRTYYADSVKGRFTISRDNSKNTLYLQMNSLRAEDTAVYYCARGKGNTHKPYGYVRYFDVWGQGTLVTVSS VL: DIVLTQSPATLSLSPGERATLSCRASQSVSSSYLAWYQQKPGQAPRLLIYGASSRATGVPARFSGSGSGTDFTLTISSLEPEDFATYYCLQIYNMPITFGQGTKVEIK",Aβ level in cerebrospinal fluid,Aβ,does not significantly reduce
same,tau protein level in cerebrospinal fluid,Aβ,significantly reduces
